{
  "source": "patent US20120027679A1",
  "about": "(CANON, published 2012)",
  "key": {"[1]": {"biological_target": "T1, HER2 (epidermal growth factor receptor 2) on N87 cells (UniProt P04626 23-1255, limits assumed)", "T1 construct": "whole, on cells; N87 cells are used as HER2-positive cells; also called HER2-positive cells (N87); HER2-expressing cells", "test": "saturation binding to N87 cells, Scatchard plot, apparent Kd; HBP1 particle", "procedure": "(§1) Each particle was evaluated for its binding capability to HER2-expressing cells. On the day before evaluation, HER2-positive cells (N87 cells) were seeded over a 24-well plate (5×10⁵ cells/well). Next day, after medium removal, 200 μL of a growth medium was placed therein, and the particle sample was then added to each well. The plate was left standing in a CO₂ incubator at 37° C. for 4 hours. Then, the medium containing the particle was removed. The wells were fully washed twice with 1 mL of PBS. After removal of PBS, 1% Triton-X100/PBS solution was added at a concentration of 150 μL/well for cell lysis. The cells were incubated at room temperature for 2 hours or longer. […] The amount of iron in this acid lysate of the sample (6 N HCl solution, 300 μL) was measured to determine the concentration of the particle bound to the cell. A Scatchard plot was prepared from the saturation binding curve of the particle for N87, and an apparent equilibrium dissociation constant (Kd) of the particle for the cell was determined.\n(§2) According to Example 8, a Scatchard plot was prepared from the saturation binding curve of each particle for N87 cells, and an apparent equilibrium dissociation constant (Kd) of the particle for the cell was determined."}, "[2]": {"biological_target": "T1, HER2 (epidermal growth factor receptor …)", "test": "saturation binding to N87 cells, Scatchard plot, apparent Kd; HBP3 particle", "procedure": "as §1, §2"}, "[3]": {"biological_target": "T1, HER2 (epidermal growth factor receptor …)", "test": "saturation binding to N87 cells, Scatchard plot, apparent Kd", "procedure": "(§3) Each particle was evaluated for its binding capability to HER2-expressing cells. On the day before evaluation, HER2-positive cells (N87 cells) were seeded over a 24-well plate (5×10⁵ cells/well). Next day, after medium removal, 200 μL of a growth medium was placed therein, and the particle sample was then added to each well. The plate was left standing in a CO₂ incubator at 37° C. for 4 hours. Then, the medium containing the particle was removed. The wells were fully washed twice with 1 mL of PBS. After removal of PBS, 1% Triton-X100/PBS solution was added at a concentration of 150 μL/well for cell lysis. The cells were incubated at room temperature for 2 hours or longer. Subsequently, concentrated hydrochloric acid (12 N) was added at a concentration of 150 μL/well, and the cells were incubated at room temperature for 2 hours or longer. The amount of iron in this acid lysate of the sample (6 N HCl solution, 300 μL) was measured to determine the concentration of the particle bound to the cell. A Scatchard plot was prepared from the saturation binding curve of the particle for N87, and an apparent equilibrium dissociation constant (Kd) of the particle for the cell was determined.\nas §2"}, "[4]": {"biological_target": "T1, HER2 (epidermal growth factor receptor …)", "test": "saturation binding to N87 cells, Scatchard plot, apparent Kd; HBP2 particle", "procedure": "as §1, §2"}, "[5]": {"biological_target": "T2, Recombinant Human ErbB2/Fc Chimera (R&D Systems, Inc.) (human, UniProt P04626 23-652)", "T2 construct": "Bought; Amine-coupled to a CM-5 chip, about 1000 to 2000 RU; also called HER2; antigen; Fc part of the bought chimera not given", "test": "SPR (Biacore X), ErbB2/Fc on CM-5 chip, Scatchard plot of Req, apparent Kd of the particle"}, "[6]": {"biological_target": "T1, HER2 (epidermal growth factor receptor …)", "test": "saturation binding to N87 cells (cell-bound iron measured), Scatchard plot, apparent Kd", "procedure": "as §3"}},
  "note": "Where no end group is shown, it is not given here. Side-chain parts run from the residue outwards. maleimide = maleimide group (reactive functional group for coupling a ligand); EO 2 kDa = ethylene oxide linker of molecular weight 2000",
  "data": [
    {"binder": "MARSGLGGKGSC([maleimide-PEG 300-iron oxide nanoparticle 200 nm]) (not fully specified)", "note": "[HBP1-EO-NP-200: HER2-binding peptide-immobilized 200-nm particle containing an iron oxide particle]", "values": [
      {"measurement": "Kd", "setting": "[1]", "value": 0.67, "unit": "nM"}
    ]},
    {"binder": "MARSGLGGKGSC([maleimide-PEG 300-iron oxide nanoparticle 200 nm]) (not fully specified)", "note": "[HBP3-EO-NP-200: HER2-binding peptide-immobilized 200-nm particle containing an iron oxide particle]", "values": [
      {"measurement": "Kd", "setting": "[2]", "value": 0.49, "unit": "nM"}
    ]},
    {"binder": "MARSGLGGKGSC([maleimide-EO 2 kDa-iron oxide nanoparticle 200 nm]) (not fully specified)", "note": "[HBP3-EO2k-NP-200: HER2-binding peptide-immobilized 200-nm particle with ethylene oxide linker of molecular weight 2000, listing 1 of 4 here]", "values": [
      {"measurement": "Kd", "setting": "[3]", "value": 0.08, "unit": "nM"}
    ]},
    {"binder": "MARSGLGGKGSC([maleimide-PEG 300-iron oxide nanoparticle 200 nm]) (not fully specified)", "note": "[HBP2-EO-NP-200: HER2-binding peptide-immobilized 200-nm particle containing an iron oxide particle]", "values": [
      {"measurement": "Kd", "setting": "[4]", "value": 0.43, "unit": "nM"}
    ]},
    {"binder": "MARSGLGGKGSC([maleimide-EO 2 kDa-iron oxide nanoparticle 200 nm]) (not fully specified)", "note": "[HBP2-EO2k-NP-200: HER2-binding peptide-immobilized 200-nm particle with ethylene oxide linker of molecular weight 2000, listing 2 of 4 here]", "values": [
      {"measurement": "Kd", "setting": "[3]", "value": 0.09, "unit": "nM"}
    ]},
    {"binder": "MARSGLGGKGSC([maleimide-EO 2 kDa-iron oxide nanoparticle 200 nm]) (not fully specified)", "note": "[HBP1-EO2k-NP-200: HER2-binding peptide-immobilized 200-nm particle with ethylene oxide linker of molecular weight 2000, listing 3 of 4 here]", "values": [
      {"measurement": "Kd", "setting": "[3]", "value": 0.07, "unit": "nM"}
    ]},
    {"binder": "MARSGLGGKGSC([maleimide-EO 2 kDa-iron oxide nanoparticle 200 nm]) (not fully specified)", "note": "[HBP4-EO2k-NP-200: HER2-binding peptide-immobilized 200-nm particle with ethylene oxide linker of molecular weight 2000, listing 4 of 4 here]", "values": [
      {"measurement": "Kd", "setting": "[3]", "value": 0.11, "unit": "nM"}
    ]},
    {"binder": "MARSGLGGKGSC([maleimide-PEG 300-iron oxide nanoparticle 20 nm]) (not fully specified)", "note": "[HBP-EO-NP-20: HER2-binding peptide-immobilized 20-nm particle containing an iron oxide particle]", "values": [
      {"measurement": "Kd", "setting": "[5]", "value": 36.7, "unit": "nM"},
      {"measurement": "Kd", "setting": "[6]", "value": 78, "unit": "nM"}
    ]}
  ]
}
